Data on two molecules can be found in patent CN115521375A (INST PASTEUR SHANGHAI CAS, dated 2022).

For experiment [1], the target named is T1, SARS-CoV-2原型株RBD蛋白 (SARS-CoV-2, UniProt P0DTC2 320-550). The experiment can be described thus: BLI, prototype RBD on the sensor, antibody in solution. Background: In BLI a coated tip is dipped into the sample, and binding shifts an interference pattern.
Another experiment concerns the target SARS-CoV-2原型株(Wt)假病毒的S蛋白 (SARS-CoV-2, UniProt P0DTC2 14-1273). Briefly: cell-based or functional assay.
In experiment [2] the target is T1, SARS-CoV-2原型株RBD蛋白. Briefly: ELISA, coated antigen. Background: In an ELISA, binding on a coated surface is turned into a signal by an enzyme label.
A further experiment concerns the target T2, SARS-CoV-2原型株NTD蛋白 (SARS-CoV-2, UniProt P0DTC2 16-294).
T2 construct: range 16-294
The experiment can be described thus: ELISA, coated antigen.

B1: 单抗5G2 (antibody)
heavy: EVLLQQSGPELVKPGASVKIPCKASGYTFTDYNMDWVKQSHGKSLEWIGDINPNSGFIIYNQKFKGKASLTVDKSSSTAYMELRSLTSEDTAVYYCAREGYGNNFDYWGQGTTLSVSSAKTTPPSVYPLAPGCGDTTGSSVTLGCLVKGYFPESVTVTWNSGSLSSSVHTFPALLQSGLYTMSSSVTVPSSTWPSQTVTCSVAHPASSTTVDKKLEPSGPISTINPCPPCKECHKCPAPNLEGGPSVFIFPPNIKDVLMISLTPKVTCVVVDVSEDDPDVQISWFVNNVEVHTAQTQTHREDYNSTIRVVSTLPIQHQDWMSGKEFKCKVNNKDLPSPIERTISKIKGLVRAPQVYILPPPAEQLSRKDVSLTCLVVGFNPGDISVEWTSNGHTEENYKDTAPVLDSDGSYFIYSKLNMKTSKWEKTDSFSCNVRHEGLKNYYLKKTISRSPGK
light: DILLTQSPTILSVSPGERVSFSCRASQSIGTSIHWYQQRTKGSPRLLIKYASESISGIPSRFSGSGSGTDFTLSINSVESEDIGDYYCQQSYSWPTTFGAGTKLELK
notes: also called 抗体5G2
In general, Kd refers to the free concentration of one partner at which half of the binding sites on the other are occupied at equilibrium, for simple one-to-one binding. As to B1, the Kd in the experiment with SARS-CoV-2原型株RBD蛋白 [1] is below 1 pM. In the experiment with SARS-CoV-2原型株(Wt)假病毒的S蛋白, the “半数抑制浓度(IC50), 假病毒中和试验” value is 0.293 µg/mL.

B2: 单抗3H3 (antibody, V domains shown)
VH: QVQLQQPGAELVRPGASVKLSCKASGYSFTRFWMNWVKQRPGQGLEWIGMIHPSDSETRLNQKFKDKATLTVDKSSTTAYMQLSSPTSEDSAVYYCARKDYDYDAWFAYWGQGTLVTVSA
VL: DIVLTQSPASLAVSLGQRATISCRASKSVSASVYSYMHWYQQKPGQPPKLLIYLASSLESGVPARFSGSGSGTDFTLNIHPVEEEDAATYYCHHSRELPPAFGGGTKLEIKR
notes: also called 抗体3H3
With B2, the binding result with SARS-CoV-2原型株RBD蛋白 [2] and with SARS-CoV-2原型株NTD蛋白 was “no binding” in each case. In addition, in the experiment with SARS-CoV-2原型株(Wt)假病毒的S蛋白, the “中和IC50, 假病毒中和试验” value stood at 0.083 µg/mL.
